From patent US20170022291A1 (Adimab, published 2017)
Where two headings read alike, the source gives them in different places.

B1: N-terminal-EGFR::C-terminal HER2 multispecific antibody analog (Analog 1) (bispecific antibody)
heavy: not shown
light: DIQLTQSPSTLSASVGDRVTITCRASQAISSWLAWYQQKPGKAPKLLIYDASSLESGVPSRFSGSGSGTEFTLTISSLQPDDFATYYCHQYQSYSWTFGGGTKVEIKRTVAAPSVFIFPPSDEQLKSGTASVVCLLNNFYPREAKVQWKVDNALQSGNSQESVTEQDSKDSTYSLSSTLTLSKADYEKHKVYACEVTHQGLSSPVTKSFNRGEC
notes: IgG-Fab 2+2 format: EGFR VH-CH1-hinge-CH2-CH3-(G4S)3-HER2 VH-CH1, two copies, with four copies of the common light chain; also called N-term-EGF::C-term-HER2; EGFR-HER2 IgG-Fab
B2: N-terminal HER2::C-terminal EGFR multispecific antibody analog (Analog 2) (bispecific antibody, human IgG1, kappa)
heavy: not shown
light: B1 light
notes: IgG-Fab 2+2 format: HER2 VH-CH1-hinge-CH2-CH3-(G4S)3-EGFR VH-CH1, two copies, with four copies of the common light chain; also called N-term-HER2::C-term-EGFR; HER2-EGFR IgG-Fab
B3: N-terminal EGFR::C-terminal HER3 multispecific antibody analog (Analog 3) (bispecific antibody, human IgG1, kappa)
heavy: not shown
light: DIQLTQSPSSVSASVGDRVTITCRASQDISSWLAWYQQKPGKAPKLLIYAASSLQSGVPSRFSGSGSGTDFTLTISSLQPEDFATYYCQQEHDFPWTFGGGTKVEIKRTVAAPSVFIFPPSDEQLKSGTASVVCLLNNFYPREAKVQWKVDNALQSGNSQESVTEQDSKDSTYSLSSTLTLSKADYEKHKVYACEVTHQGLSSPVTKSFNRGEC
notes: IgG-Fab 2+2 format: EGFR VH-CH1-hinge-CH2-CH3-(G4S)3-HER3 VH-CH1, two copies, with four copies of the common light chain; also called N-term-EGFR::C-term-HER3; EGFR-HER3 IgG-Fab
B4: N-terminal HER3::C-terminal EGFR multispecific antibody analog (Analog 4) (bispecific antibody, human IgG1, kappa)
heavy: not shown
light: B3 light
notes: IgG-Fab 2+2 format: HER3 VH-CH1-hinge-CH2-CH3-(G4S)3-EGFR VH-CH1, two copies, with four copies of the common light chain; also called N-term-HER3::C-term-EGFR; HER3-EGFR IgG-Fab

Experiments:
EGFR [1] = target: T1, EGFR (UniProt P00533 25-645, limits assumed); assay: affinity of the EGFR binding region in the IgG-Fab; method not named on the sheet or in the legend
T1 construct: also called Antigen 1

[2] = target: T2, Human Epidermal Growth Factor Receptor 2 (HER2), soluble antigen (human, UniProt P04626 23-652, limits assumed); assay: affinity of the HER2 binding region in the IgG-Fab; method not named on the sheet or in the legend
T2 construct: also called b-HER2; b-HER2-HIS

[3] = target: T3, Human Epidermal Growth Factor Receptor 3 (HER3), soluble antigen (human, UniProt P21860 20-643, limits assumed); assay: affinity of the HER3 binding region in the IgG-Fab; method not named on the sheet or in the legend
T3 construct: also called b-HER3; b-HER3-HIS

EGFR [4] = target: T1, EGFR; assay: affinity of the EGFR binding region in the IgG-Fab; method not named on the sheet or in the legend; remark: listed apart in the source

Binder | Kd (EGFR [1]) [nM] | Kd [2] [nM] | Kd [3] [nM] | Kd (EGFR [4]) [nM]
B1 | 0.17 | 8.2 |  | 
B2 | 0.47 | 0.1 |  | 
B3 |  |  | 0.049 | 0.29
B4 |  |  | 0.049 | 0.87
